The labels stand for the following.
B1: E-S0 (mouse E-selectin lectin and EGF domains, no SCR domains) (domain or fragment)
chain: WYYNASSELMTYDEASAYCQRDYTHLVAIQNKEEINYLNSNLKHSPSYYWIGIRKVNNVWIWVGTGKPLTEEAQNWAPGEPNNKQRNEDCVEIYIQRTKDSGMWNDERCNKKKLALCYTASCTNASCSGHGECIETINSYTCKCHPGFLGPNCEQ
B2: E-S2-A28H (E-S2 with the A28H mutation in the lectin domain) (domain or fragment)
chain: WYYNASSELMTYDEASAYCQRDYTHLVHIQNKEEINYLNSNLKHSPSYYWIGIRKVNNVWIWVGTGKPLTEEAQNWAPGEPNNKQRNEDCVEIYIQRTKDSGMWNDERCNKKKLALCYTASCTNASCSGHGECIETINSYTCKCHPGFLGPNCEQAVTCKPQEHPDYGSLNCSHPFGPFSYNSSCSFGCKRGYLPSSMETTVRCTSSGEWSAPAPACHVVECEALTHPAHGIRKCSSNPGSYPWNTTCTFDCVEGYRRVGAQNLQCTSSGIWDNETPSCKA
B3: E-S6 (monomeric full-length extracellular mouse E-selectin) (domain or fragment)
chain: WYYNASSELMTYDEASAYCQRDYTHLVAIQNKEEINYLNSNLKHSPSYYWIGIRKVNNVWIWVGTGKPLTEEAQNWAPGEPNNKQRNEDCVEIYIQRTKDSGMWNDERCNKKKLALCYTASCTNASCSGHGECIETINSYTCKCHPGFLGPNCEQAVTCKPQEHPDYGSLNCSHPFGPFSYNSSCSFGCKRGYLPSSMETTVRCTSSGEWSAPAPACHVVECEALTHPAHGIRKCSSNPGSYPWNTTCTFDCVEGYRRVGAQNLQCTSSGIWDNETPSCKAVTCDAIPQPQNGFVSCSHSTAGELAFKSSCNFTCEQSFTLQGPAQVECSAQGQWTPQIPVCKAVQCEALSAPQQGNMKCLPSASGPFQNGSSCEFSCEEGFELKGSRRLQCGPRGEWDSKKPTCSAVKCDDVPRPQNGVMECAHATTGEFTYKSSCAFQCNEGFSLHGSAQLECTSQGKWTQEVPSCQVVQCPSLDVPGKMNMSCSGTAVFGTVCEFTCPDDWTLNGSAVLTCGATGRWSGMPPTCEAPVSPTRP
B4: E-S2 (truncated mouse E-selectin with only the first two SCR domains) (domain or fragment)
chain: B2 chain with H28A

Numbering of substitutions follows the chain as printed. In names and notes the source's numbering stands. Several values for one entry are separate records, joined by “and”; a condition that tells them apart may be missing. Equal values may be shown once.

T1 sequence (P16070 other isoform, or with tags, fused parts or gaps): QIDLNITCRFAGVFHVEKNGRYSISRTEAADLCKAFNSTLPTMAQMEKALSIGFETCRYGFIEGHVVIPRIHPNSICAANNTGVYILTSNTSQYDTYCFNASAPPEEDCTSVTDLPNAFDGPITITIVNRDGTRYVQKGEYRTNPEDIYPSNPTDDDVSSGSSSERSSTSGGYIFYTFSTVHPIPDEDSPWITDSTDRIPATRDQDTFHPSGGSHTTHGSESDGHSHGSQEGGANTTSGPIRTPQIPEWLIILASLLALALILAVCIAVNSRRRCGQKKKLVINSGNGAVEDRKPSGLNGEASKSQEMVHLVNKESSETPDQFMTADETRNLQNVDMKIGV

The first experiment addresses T1, CD44/HCELL (hematopoietic cell E- and/or L-selectin ligand) (human (endogenous in KG1a), UniProt P16070-12 21-361). The experiment in a line: SPR.
In turn, B1 returned a dissociation constant Kd of 18700 nM. Still for that read-out and setting: as for B2, the figure is 1190 nM; as for B3, 1700 nM.

For a further experiment, the target named is T1, CD44/HCELL (hematopoietic cell E- …). Put plainly: SPR. The source holds these as a separate data set. (Surface plasmon resonance follows binding to a sensor surface in real time, without labels.)
B1: the koff is 5e-05 s⁻¹ and 7e-05 s⁻¹.

For B2, the koff is 0.0002 s⁻¹ and 0.00011 s⁻¹. With B4, the dissociation rate constant (koff) is 0.00016 s⁻¹ and 0.00014 s⁻¹. Take B3: the off-rate constant (koff) was 0.000225 s⁻¹ and 0.00014 s⁻¹.

In general, Kd refers to the free concentration of one partner at which half of the binding sites on the other are occupied at equilibrium, for simple one-to-one binding. A high value points to a looser complex. Broadly, the koff is a measure of how fast the partners let go of each other. Higher therefore signals a short-lived complex.

The record behind these values is publication PMC7076219 (2020).
